Read-outs that look alike come from different tables or passages of the source. Each block holds one molecule with its values, some of them ahead of it.
Legend:
[1] = tested on: Zymomonas mobilis ADH II, crude extract of Synechocystis strain 6803-pVZ-PisiA (pVZ-PisiA-Pdc-AdhII); assay: Adh activity of crude extract of strain 6803-pVZ-PisiA in the direction of ethanol formation (Lineweaver-Burk); assay type: biochemical; conditions: for Km: read-out: Km for acetaldehyde
Method: For preparation of crude extracts, cells were harvested, washed with 40 mM MES/Tris (pH 6.5), 1 mM DTT and broken (beadbeater, 2×10 min). The supernatant of a centrifugation (15 min, 14000 rpm, 4° C., Micro 200R, Hettich) was used for the determination of Adh activity in cells.
The initial velocity was calculated from the dE/min at 340 nm.
In order to compare the dates acquired with intact cells, the kinetic constants of alcohol dehydrogenase in crude extracts of strain 6803-pVZ-PisiA were measured. […] A graphical representation of the results obtained is given in form of a “Lineweaver-Burk” plot (FIG. 8).
In a second experiment the Adh activity was measured at pH 7.5. NADH and NADPH were used as co-substrates.

[2] = tested on: Zymomonas mobilis ADH II (with Pdc) in intact Synechocystis PCC 6803 cells, strain 6803-pVZ-PisiA (pVZ-PisiA-Pdc-AdhII); assay: Ethanol production by intact cells of strain 6803-pVZ-PisiA after addition of acetaldehyde (Lineweaver-Burk); assay type: cell-based, Synechocystis PCC 6803 (Zymomonas mobilis AdhII)
Method: Methods: Synechocystis PCC 6803 wild type and the transgenic strain “6803-pVZ-PisiA”, corresponding to the above described Synechocystis pVZ-PisiA-Pdc-AdhII, were washed twice with BG11 (centrifugation 15 min, 4500 rpm, 4° C.; Rotina 420R, Hettich) and redissolved in BG11. Aliquots of 2 ml were spiked with acetaldehyde. The assays were incubated at room temperature under illumination. Samples of 250 μl were removed in defined time intervals (5 min or 10 min) and centrifuged (3 min, 14000 rpm, room temperature, Micro 200R, Hettich).
Ethanol was quantified with a described protocol. The method is based on oxidation of ethanol catalyzed by alcohol dehydrogenase (Sigma, Adh of S. cerevisiae). NADH formed in this reaction, reacts with the PMS/MTT reagent to a dye.
OD750 of the culture was 0.56.
This experiment was repeated with a different culture of strain 6803-pVZ-PisiA of OD750 of 1.353 and a chlorophyll concentration of 4.6 μg/ml. Similar results were obtained.

[3] = molecular target: T1, Synechocystis sp. PCC 6803 alcohol dehydrogenase SynAdh (slr1192, BAA18840), wild type, SEQ ID NO:4, overexpressed, crude extract (Synechocystis sp. PCC 6803, UniProt P74721); assay: Acetaldehyde reduction by crude extract of Synechocystis overexpressing SynAdh, varied cosubstrate (Lineweaver-Burk); assay type: biochemical; conditions: pH 6.1
T1 construct: PCC 6803; crude cell extract
T1 sequence (P74721 1-336): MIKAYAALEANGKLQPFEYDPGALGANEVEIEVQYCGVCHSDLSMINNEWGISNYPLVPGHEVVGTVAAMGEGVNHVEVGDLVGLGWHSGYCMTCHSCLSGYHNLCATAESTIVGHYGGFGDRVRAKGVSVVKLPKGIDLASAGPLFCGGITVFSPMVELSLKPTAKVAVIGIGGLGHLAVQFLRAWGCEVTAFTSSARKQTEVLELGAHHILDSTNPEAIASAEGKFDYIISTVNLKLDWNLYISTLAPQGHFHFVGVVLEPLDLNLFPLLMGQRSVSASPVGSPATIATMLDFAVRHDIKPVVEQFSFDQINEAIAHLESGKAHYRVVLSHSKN
Method: The Adh enzyme from Synechocystis was further characterized by preparing crude cell extracts from Synechocystis PCC6803 overexpressing SynAdh.
For preparation of crude extracts, cells were pelleted, dissolved in buffer supplemented with 1 mM DTT and broken (beadbeater, 2×10 min, glass beads with 100 μm diameter). The supernatant of a centrifugation (15 min, 14000 rpm, 4° C., Micro 200R, Hettich) was used for the experiments.
The Adh activity was measured as rate of the increase of the absorbance at 340 nm. […] The reaction was started by addition of an acetaldehyde solution to a final concentration of 0.125 mM and the rate of decrease of the absorbance at 340 nm was measured. […] Protein was determined by the method of Lowry.
Measurements were performed at pH 6.1.

[4] = tested on: Zymomonas mobilis ADH I (ZmAdhI, AAV89860), SEQ ID NO:2; conditions: literature values; ranges given jointly for ADH I and ADH II; cited from earlier work
[5] = tested on: Zymomonas mobilis ADH II (ZmAdhII); conditions: literature values; ranges given jointly for ADH I and ADH II; cited from earlier work
[6] = substrate: NC(=O)C1=CN([C@@H]2O[C@H](COP(=O)(O)OP(=O)(O)OC[C@H]3O[C@@H](n4cnc5c(N)ncnc54)[C@H](O)[C@@H]3O)[C@@H](O)[C@H]2O)C=CC1; assay: cells, lysate or membranes; conditions: other: acetaldehyde reduction, crude extract, pH 6.1
[7] = substrate: NC(=O)C1=CN([C@@H]2O[C@H](COP(=O)(O)OP(=O)(O)OC[C@H]3O[C@@H](n4cnc5c(N)ncnc54)[C@H](OP(=O)(O)O)[C@@H]3O)[C@@H](O)[C@H]2O)C=CC1; assay: cells, lysate or membranes; conditions: other: acetaldehyde reduction, crude extract, pH 6.1
[8] = substrate: CC=O; assay: Acetaldehyde reduction (forward reaction) by purified SynAdh, Km determination; assay type: biochemical, Synechocystis sp. PCC 6803; conditions: other: acetaldehyde reduction
Method: (§1) Fraction 2 of the purification was used for the measurement of the kinetic parameters of the SynAdh as described in the following.
(§2) Both ethanol oxidation and acetaldehyde reduction were analyzed at different pH values. Experiments were made at pH 7.5 in presence of high concentrations of KCl in order to mimic the intracellular conditions.
For measurements at pH 6.0 HEPES/KOH was substituted by 30 mM MES/KOH (pH 6.0), KCl was omitted.
(§3) The Km and vmax values of SynAdh for the different substrates were determined with Lineweaver-Burk plots.

[9] = substrate: NC(=O)c1ccc[n+]([C@@H]2O[C@H](COP(=O)([O-])OP(=O)(O)OC[C@H]3O[C@@H](n4cnc5c(N)ncnc54)[C@H](O)[C@@H]3O)[C@@H](O)[C@H]2O)c1; assay: purified protein, by the assay type; conditions: other: ethanol oxidation
Method: as §1, §2
For measurements at pH 8.5 HEPES/KOH was substituted by 30 mM Tris/HCl (pH 8.5), KCl was omitted.
as §3

[10] = substrate: NC(=O)C1=CN([C@@H]2O[C@H](COP(=O)(O)OP(=O)(O)OC[C@H]3O[C@@H](n4cnc5c(N)ncnc54)[C@H](O)[C@@H]3O)[C@@H](O)[C@H]2O)C=CC1; assay: purified protein, by the assay type; conditions: other: acetaldehyde reduction
[11] = substrate: CCO; assay: purified protein, by the assay type; conditions: other: ethanol oxidation
[12] = substrate: NC(=O)c1ccc[n+]([C@@H]2O[C@H](COP(=O)([O-])OP(=O)(O)OC[C@H]3O[C@@H](n4cnc5c(N)ncnc54)[C@H](OP(=O)(O)O)[C@@H]3O)[C@@H](O)[C@H]2O)c1; assay: purified protein, by the assay type; conditions: other: ethanol oxidation
[13] = substrate: NC(=O)C1=CN([C@@H]2O[C@H](COP(=O)(O)OP(=O)(O)OC[C@H]3O[C@@H](n4cnc5c(N)ncnc54)[C@H](OP(=O)(O)O)[C@@H]3O)[C@@H](O)[C@H]2O)C=CC1; assay: purified protein, by the assay type; conditions: other: acetaldehyde reduction
[14] = pH 7.5, NADH 0.25 M or NADPH 0.21 M

Molecule: CC=O [acetaldehyde]
Vmax ([1]; pH 6.5, NADH in excess): 7.2 μMol L^−1 mg^−1 chlorophyll
Km ([1]; pH 6.5, NADH in excess): 45 µM
Vmax [1, 14]: 0.89 μMol L^−1 mg^−1 chlorophyll
Km [1, 14]: 100 µM
Km ([2]; OD750 0.56): 18 µM
Vmax ([2]; OD750 0.56): 3.2 µmol/L/min
Vmax ([2]; repeat, OD750 1.353): 4.35 µmol/L/min
Km ([2]; repeat, OD750 1.353, chlorophyll 4.6 μg/ml): 25 µM
Vmax ([2]; repeat, using chlorophyll as reference): 0.95 µmol/L/mg

vmax for NADH [3]: 1.6 μMol min^−1 ml^−1 crude extract
Molecule: NC(=O)C1=CN([C@@H]2O[C@H](COP(=O)(O)OP(=O)(O)OC[C@H]3O[C@@H](n4cnc5c(N)ncnc54)[C@H](O)[C@@H]3O)[C@@H](O)[C@H]2O)C=CC1 [NADH, reduced nicotinamide-adenine dinucleotide]

Molecule: NC(=O)c1ccc[n+]([C@@H]2O[C@H](COP(=O)([O-])OP(=O)(O)OC[C@H]3O[C@@H](n4cnc5c(N)ncnc54)[C@H](O)[C@@H]3O)[C@@H](O)[C@H]2O)c1 [NAD^+, nicotinamide-adenine dinucleotide]
Km [4]: 73 µM
Km [5]: 110 µM

Molecule: CCO [ethanol]
Km [4]: 24 µM
Km [5]: 140 µM

vmax for NADPH [3]: 0.4 μMol min^−1 ml^−1 crude extract
Molecule: NC(=O)C1=CN([C@@H]2O[C@H](COP(=O)(O)OP(=O)(O)OC[C@H]3O[C@@H](n4cnc5c(N)ncnc54)[C@H](OP(=O)(O)O)[C@@H]3O)[C@@H](O)[C@H]2O)C=CC1 [NADPH]

B1: Synechocystis sp. PCC 6803 alcohol dehydrogenase SynAdh (slr1192, BAA18840), wild type, SEQ ID NO:4, overexpressed, crude extract (Synechocystis sp. PCC 6803 … (protein)
chain: T1 sequence (P74721 1-336)
Km [6]: 1000 µM
Km [7]: 15 µM

B2: Synechocystis sp. PCC 6803 alcohol dehydrogenase SynAdh (slr1192, BAA18840), wild type, SEQ ID NO:4, purified (Synechocystis sp. PCC 6803 substr. Kazusa) (protein)
chain: T1 sequence (P74721 1-336)
Km ([8]; pH 6.0): 200 μM μM
Km ([8]; pH 7.5, 150 mM KCl, pH 7.5): 180 μM μM
Km ([8]; purified enzyme): 200 µM
Km ([9]; pH 7.5, 150 mM KCl, pH 7.5): 10 mM mM
Km ([9]; pH 8.5): 10 mM mM
Km ([10]; pH 7.5, 150 mM KCl, pH 7.5): 1000 μM μM
Km ([10]; purified enzyme): 1000 µM
Km ([11]; pH 7.5, 150 mM KCl, pH 7.5): 23 mM mM
Km ([11]; pH 8.5): 59 mM mM
Km ([12]; pH 7.5, 150 mM KCl, pH 7.5): 15 μM μM
Km ([12]; pH 8.5): 15 μM μM
Km ([13]; pH 6.0): 20 μM μM
Km ([13]; pH 7.5, 150 mM KCl, pH 7.5): 15 μM μM
Km ([13]; purified enzyme): 15 µM
